According to US20180319883A1 (Stanford University, published 2018):
Blank lines part the entries; values can stand above or below the binder they belong to.

Legend:
[1] = target: T1, human SIRPα, endogenous, on THP-1 cells (human, UniProt P78324 31-504); assay: flow cytometry competition on THP-1 cells against 100 nM fluorescent CD47/streptavidin tetramers
T1 construct: whole, on cells; also called SIRP-alpha

[2] = target: T1, human SIRPα, endogenous, on THP-1 cells; assay: flow cytometry competition on THP-1 cells against CD47 tetramers

IC50 [1]: ~0.27 nM
B1: KWAR23, monoclonal CD47-blocking anti-human SIRPα antibody (purified from hybridoma supernatant) (antibody, V domains shown)
VH: EVQLQQSGAELVKPGASVKLSCTASGFNIKDYYIHWVQQRTEQGLEWIGRIDPEDGETKYAPKFQDKATITADTSSNTAYLHLSSLTSEDTAVYYCARWGAYWGQGTLVTVSS
VL: QIVLTQSPAIMSASPGEKVTLTCSASSSVSSSYLYWYQQKPGSSPKLWIYSTSNLASGVPARFSGSGSGTSYSLTISSMEAEDAASYFCHQWSSYPRTFGAGTKLELK
notes: Mouse hybridoma antibody purified by protein G chromatography; also called KWAR23 antibody; intact KWAR23

IC50 [2]: ~35 nM
B2: KWAR23 scFv LH (N-terminal light chain), monomer expressed in E. coli (scFv)
scFv: QIVLTQSPAIMSASPGEKVTLTCSASSSVSSSYLYWYQQKPGSSPKLWIYSTSNLASGVPARFSGSGSGTSYSLTISSMEAEDAASYFCHQWSSYPRTFGAGTKLELKGTTAASGSSGGSSSGAEVQLQQSGAELVKPGASVKLSCTASGFNIKDYYIHWVQQRTEQGLEWIGRIDPEDGETKYAPKFQDKATITADTSSNTAYLHLSSLTSEDTAVYYCARWGAYWGQGTLVTVS
notes: also called LH scFv; LH monomer

IC50 [2]: ~35 nM
B3: KWAR23 scFv HL (N-terminal heavy chain), monomer expressed in E. coli (scFv)
scFv: EVQLQQSGAELVKPGASVKLSCTASGFNIKDYYIHWVQQRTEQGLEWIGRIDPEDGETKYAPKFQDKATITADTSSNTAYLHLSSLTSEDTAVYYCARWGAYWGQGTLVTVSGGGGSGGGGSGGGGSQIVLTQSPAIMSASPGEKVTLTCSASSSVSSSYLYWYQQKPGSSPKLWIYSTSNLASGVPARFSGSGSGTSYSLTISSMEAEDAASYFCHQWSSYPRTFGAGTKLELK
notes: also called HL scFv; HL monomer
